Assay results reported in patent publication US10562947B2, “Compositions and methods for preventing or treating diseases, conditions or processes characterized by aberrant fibroblast proliferation and extracellular matrix deposition” (MOERAE MATRIX, INC., priority 2011, dated 2020).

Columns and labels:
Assay in all cases: Kinase Profiling Assay
Assay type in all cases: biochemical
Conditions in all cases: 100 μM peptide
BrSK2(h) = molecular target: T1, BrSK2(h) (Homo sapiens, UniProt Q8IWQ3)
T1 sequence (Q8IWQ3 1-736): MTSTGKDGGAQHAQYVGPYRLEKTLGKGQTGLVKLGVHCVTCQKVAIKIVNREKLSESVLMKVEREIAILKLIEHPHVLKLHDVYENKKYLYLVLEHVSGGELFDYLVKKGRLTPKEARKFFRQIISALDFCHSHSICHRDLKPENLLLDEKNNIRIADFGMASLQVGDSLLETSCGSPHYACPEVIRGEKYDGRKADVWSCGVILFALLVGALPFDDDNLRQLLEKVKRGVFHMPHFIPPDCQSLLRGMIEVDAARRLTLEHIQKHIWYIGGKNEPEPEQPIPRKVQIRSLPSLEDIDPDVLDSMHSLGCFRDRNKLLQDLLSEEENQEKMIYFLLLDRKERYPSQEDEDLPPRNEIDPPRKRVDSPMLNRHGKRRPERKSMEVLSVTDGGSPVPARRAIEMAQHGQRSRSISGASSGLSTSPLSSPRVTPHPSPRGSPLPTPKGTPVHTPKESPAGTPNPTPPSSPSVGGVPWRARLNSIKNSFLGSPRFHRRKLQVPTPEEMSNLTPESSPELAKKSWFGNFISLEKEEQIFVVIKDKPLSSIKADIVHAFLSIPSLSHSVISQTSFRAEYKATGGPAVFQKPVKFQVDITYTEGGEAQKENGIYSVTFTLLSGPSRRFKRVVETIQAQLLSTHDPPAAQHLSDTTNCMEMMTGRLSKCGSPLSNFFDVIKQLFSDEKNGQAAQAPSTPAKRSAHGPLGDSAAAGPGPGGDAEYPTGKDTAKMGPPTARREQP
In short: (§1)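 Off-target screen of MK2 peptide inhibitors, 266 human kinases, n = 2 per activity measurement.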

DMPK(h) = molecular target: T2, DMPK(h) (Homo sapiens, UniProt Q09013)
T2 sequence (Q09013 1-629): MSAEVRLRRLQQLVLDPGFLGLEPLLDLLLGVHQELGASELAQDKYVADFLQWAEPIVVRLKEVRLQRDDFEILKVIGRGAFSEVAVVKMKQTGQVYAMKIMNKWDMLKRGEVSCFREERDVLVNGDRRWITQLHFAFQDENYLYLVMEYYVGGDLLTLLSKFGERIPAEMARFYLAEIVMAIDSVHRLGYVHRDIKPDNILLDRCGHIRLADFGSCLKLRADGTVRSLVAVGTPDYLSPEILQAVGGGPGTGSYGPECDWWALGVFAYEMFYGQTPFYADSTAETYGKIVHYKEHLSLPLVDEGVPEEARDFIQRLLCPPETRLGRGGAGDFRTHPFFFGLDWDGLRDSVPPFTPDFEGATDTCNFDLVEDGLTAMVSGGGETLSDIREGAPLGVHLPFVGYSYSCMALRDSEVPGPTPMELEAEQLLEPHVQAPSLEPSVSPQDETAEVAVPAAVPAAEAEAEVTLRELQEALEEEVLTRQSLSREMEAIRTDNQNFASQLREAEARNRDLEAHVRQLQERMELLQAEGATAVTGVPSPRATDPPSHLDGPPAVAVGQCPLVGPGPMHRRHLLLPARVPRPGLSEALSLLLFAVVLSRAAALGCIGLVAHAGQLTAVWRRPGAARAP
In short: as §1

EphB3(h) = molecular target: T3, EphB3(h) (Homo sapiens, UniProt P54753)
T3 sequence (P54753 34-998): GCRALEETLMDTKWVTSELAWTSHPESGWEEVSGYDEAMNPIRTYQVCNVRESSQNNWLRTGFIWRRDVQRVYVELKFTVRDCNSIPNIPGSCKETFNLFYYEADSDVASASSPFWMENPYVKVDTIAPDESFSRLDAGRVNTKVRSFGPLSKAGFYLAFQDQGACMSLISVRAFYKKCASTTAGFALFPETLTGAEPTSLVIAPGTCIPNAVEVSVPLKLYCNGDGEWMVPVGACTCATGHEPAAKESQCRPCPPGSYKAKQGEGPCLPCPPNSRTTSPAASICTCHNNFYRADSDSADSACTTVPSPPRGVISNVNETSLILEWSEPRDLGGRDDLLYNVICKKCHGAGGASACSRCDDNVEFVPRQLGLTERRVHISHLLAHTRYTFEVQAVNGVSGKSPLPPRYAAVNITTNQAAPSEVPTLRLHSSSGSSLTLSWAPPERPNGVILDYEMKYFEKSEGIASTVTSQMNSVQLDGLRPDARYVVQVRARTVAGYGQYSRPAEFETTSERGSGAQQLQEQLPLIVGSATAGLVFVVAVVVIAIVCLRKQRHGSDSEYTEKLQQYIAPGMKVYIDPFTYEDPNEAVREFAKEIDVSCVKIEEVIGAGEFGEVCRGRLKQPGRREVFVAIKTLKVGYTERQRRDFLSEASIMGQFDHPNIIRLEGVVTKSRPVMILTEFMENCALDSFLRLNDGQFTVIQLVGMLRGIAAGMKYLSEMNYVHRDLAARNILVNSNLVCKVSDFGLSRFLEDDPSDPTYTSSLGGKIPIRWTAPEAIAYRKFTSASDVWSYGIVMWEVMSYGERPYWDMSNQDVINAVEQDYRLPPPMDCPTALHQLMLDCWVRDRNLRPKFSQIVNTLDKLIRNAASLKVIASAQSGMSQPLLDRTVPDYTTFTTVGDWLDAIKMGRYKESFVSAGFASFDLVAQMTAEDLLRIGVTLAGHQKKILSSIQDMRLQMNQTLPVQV
In short: as §1

MELK(h) = MELK(h) (Homo sapiens, UniProt Q14680)
Sequence of MELK(h) (Q14680 whole entry): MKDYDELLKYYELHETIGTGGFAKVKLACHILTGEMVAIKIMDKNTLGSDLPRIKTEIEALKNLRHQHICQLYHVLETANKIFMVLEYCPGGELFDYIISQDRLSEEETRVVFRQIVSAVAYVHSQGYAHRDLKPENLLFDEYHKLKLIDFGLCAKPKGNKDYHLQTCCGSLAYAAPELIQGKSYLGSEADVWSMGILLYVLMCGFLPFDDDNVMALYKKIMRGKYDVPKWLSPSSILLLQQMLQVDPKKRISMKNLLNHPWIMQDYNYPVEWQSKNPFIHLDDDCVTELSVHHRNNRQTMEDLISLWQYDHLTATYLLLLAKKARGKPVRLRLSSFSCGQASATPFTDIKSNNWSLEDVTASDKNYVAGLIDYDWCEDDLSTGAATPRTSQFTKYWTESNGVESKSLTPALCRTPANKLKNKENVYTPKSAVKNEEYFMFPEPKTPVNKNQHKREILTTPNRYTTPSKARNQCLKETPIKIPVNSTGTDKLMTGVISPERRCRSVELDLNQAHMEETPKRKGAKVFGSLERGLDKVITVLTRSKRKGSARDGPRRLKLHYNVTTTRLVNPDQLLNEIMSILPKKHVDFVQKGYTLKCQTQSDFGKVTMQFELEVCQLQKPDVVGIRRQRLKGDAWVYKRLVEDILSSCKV
In short: as §1

Pyk2(h) = molecular target: T4, Pyk2(h) (Homo sapiens, UniProt Q14289)
T4 construct: purchased Millipore (IC50 Profiler Express service)
T4 sequence (Q14289 whole entry): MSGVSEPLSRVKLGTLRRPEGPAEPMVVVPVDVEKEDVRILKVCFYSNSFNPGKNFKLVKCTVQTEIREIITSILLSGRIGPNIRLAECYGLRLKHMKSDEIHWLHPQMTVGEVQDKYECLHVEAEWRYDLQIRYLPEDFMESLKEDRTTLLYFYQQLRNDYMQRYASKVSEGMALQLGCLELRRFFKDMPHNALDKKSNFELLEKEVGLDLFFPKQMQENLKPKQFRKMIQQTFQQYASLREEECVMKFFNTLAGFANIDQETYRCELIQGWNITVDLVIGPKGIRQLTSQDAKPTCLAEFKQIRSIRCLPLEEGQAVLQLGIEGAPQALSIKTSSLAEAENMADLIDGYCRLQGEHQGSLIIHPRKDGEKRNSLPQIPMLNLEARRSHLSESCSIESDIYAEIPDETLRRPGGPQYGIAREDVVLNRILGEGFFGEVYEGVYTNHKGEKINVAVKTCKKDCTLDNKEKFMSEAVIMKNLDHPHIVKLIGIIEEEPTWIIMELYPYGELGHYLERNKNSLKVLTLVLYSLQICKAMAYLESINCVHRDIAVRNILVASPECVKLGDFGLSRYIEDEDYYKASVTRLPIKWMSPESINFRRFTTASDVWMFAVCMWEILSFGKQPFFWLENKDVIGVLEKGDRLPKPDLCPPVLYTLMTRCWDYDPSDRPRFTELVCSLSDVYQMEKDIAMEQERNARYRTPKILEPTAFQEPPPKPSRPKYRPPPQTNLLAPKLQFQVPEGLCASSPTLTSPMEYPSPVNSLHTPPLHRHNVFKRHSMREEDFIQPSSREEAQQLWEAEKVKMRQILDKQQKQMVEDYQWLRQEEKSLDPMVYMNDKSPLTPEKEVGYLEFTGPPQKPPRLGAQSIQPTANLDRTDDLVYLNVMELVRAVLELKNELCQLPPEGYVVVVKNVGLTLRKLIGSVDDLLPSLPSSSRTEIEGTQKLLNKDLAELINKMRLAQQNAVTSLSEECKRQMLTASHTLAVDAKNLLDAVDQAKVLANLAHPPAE
In short: as §1

PKCη(h) = PKCη(h) (Homo sapiens, UniProt P24723)
Sequence of PKCη(h) (P24723 whole entry): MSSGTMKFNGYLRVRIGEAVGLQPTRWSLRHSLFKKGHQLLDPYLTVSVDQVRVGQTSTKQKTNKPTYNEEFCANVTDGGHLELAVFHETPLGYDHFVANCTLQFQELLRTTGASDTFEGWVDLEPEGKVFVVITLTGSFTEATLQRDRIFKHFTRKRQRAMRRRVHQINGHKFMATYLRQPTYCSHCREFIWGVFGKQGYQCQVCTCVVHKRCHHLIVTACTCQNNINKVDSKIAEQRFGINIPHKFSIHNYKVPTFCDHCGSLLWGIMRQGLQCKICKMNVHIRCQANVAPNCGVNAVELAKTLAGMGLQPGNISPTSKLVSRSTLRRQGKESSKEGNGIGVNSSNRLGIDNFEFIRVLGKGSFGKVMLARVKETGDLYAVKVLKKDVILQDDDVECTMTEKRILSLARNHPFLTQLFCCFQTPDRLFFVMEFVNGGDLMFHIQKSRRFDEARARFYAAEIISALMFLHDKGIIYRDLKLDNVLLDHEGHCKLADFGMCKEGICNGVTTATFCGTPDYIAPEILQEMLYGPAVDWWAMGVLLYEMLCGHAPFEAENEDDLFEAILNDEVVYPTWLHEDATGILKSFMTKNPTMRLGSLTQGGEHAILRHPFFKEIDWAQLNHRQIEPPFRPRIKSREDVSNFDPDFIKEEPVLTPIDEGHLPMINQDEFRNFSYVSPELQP
In short: as §1

Sequence | BrSK2(h) % activity (BrSK2(h)) | DMPK(h) % activity (DMPK(h)) | EphB3(h) % activity (EphB3(h)) | MELK(h) % activity (MELK(h)) | Pyk2(h) % activity (Pyk2(h)) | PKCη(h) % activity (PKCη(h))
KAFAKLAARLYRKALARQLGVAA [MMI-0400] | 86% | 54% | 47% | 17% | 34% | 98%
YARAAARQARAKALNRQLGVA (Mammalian) [MMI-0200] |  | 66% | 128% | 59% | 127% | 101%
FAKLAARLYRKALARQLGVAA [MMI-0300] | 83% | 59% | 62% | 16% | 47% | 
HRRIKAWLKKIKALARQLGVAA (Mammalian) [MMI-0500] | 84% | 12% | 79% | 0% | 46% | 45%
